In publication PMC11601812:

How the values were obtained:
[1] = molecular target: steroid receptor coactivator 3 (SRC3), full-length, Strep II tagged (human) (UniProt Q9Y6Q9); experiment: SEC-MALS; R5020-bound PR-A, SRC3 and p300 mixed with PRE DNA; Superose 6 Increase; 20 mM Hepes, 50 mM NaCl, 5% glycerol, 1 mM TCEP, with or without 1 M urea, pH 7.5
[2] = molecular target: progesterone receptor isoform A (PR-A), full-length, Strep II tagged (human) (UniProt P06401); experiment: as above
Chain of progesterone receptor isoform A (PR-A), full-length, Strep II tagged (human) (P06401 165-933): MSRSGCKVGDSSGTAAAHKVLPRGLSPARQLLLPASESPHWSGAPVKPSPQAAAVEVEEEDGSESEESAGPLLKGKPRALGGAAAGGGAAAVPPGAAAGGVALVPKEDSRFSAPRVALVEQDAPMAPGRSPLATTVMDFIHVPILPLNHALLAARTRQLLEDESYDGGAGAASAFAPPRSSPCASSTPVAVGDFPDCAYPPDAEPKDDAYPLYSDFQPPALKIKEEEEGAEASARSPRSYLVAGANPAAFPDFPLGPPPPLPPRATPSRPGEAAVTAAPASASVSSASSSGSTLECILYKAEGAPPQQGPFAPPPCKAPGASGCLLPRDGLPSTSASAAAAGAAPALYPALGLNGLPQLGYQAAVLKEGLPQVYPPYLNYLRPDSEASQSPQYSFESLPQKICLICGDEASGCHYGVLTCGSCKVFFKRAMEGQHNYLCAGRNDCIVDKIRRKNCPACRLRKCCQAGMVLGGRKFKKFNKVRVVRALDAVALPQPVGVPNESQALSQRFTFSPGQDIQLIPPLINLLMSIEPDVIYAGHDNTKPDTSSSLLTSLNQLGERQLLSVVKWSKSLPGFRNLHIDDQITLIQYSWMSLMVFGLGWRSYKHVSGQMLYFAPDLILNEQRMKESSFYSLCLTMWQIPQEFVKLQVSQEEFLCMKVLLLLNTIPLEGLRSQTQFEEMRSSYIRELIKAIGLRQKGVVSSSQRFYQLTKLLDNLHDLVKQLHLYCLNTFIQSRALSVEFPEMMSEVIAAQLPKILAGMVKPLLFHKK

Chain of steroid receptor coactivator 3 (SRC3), full-length, Strep II tagged (human) (Q9Y6Q9 whole entry, canonical isoform): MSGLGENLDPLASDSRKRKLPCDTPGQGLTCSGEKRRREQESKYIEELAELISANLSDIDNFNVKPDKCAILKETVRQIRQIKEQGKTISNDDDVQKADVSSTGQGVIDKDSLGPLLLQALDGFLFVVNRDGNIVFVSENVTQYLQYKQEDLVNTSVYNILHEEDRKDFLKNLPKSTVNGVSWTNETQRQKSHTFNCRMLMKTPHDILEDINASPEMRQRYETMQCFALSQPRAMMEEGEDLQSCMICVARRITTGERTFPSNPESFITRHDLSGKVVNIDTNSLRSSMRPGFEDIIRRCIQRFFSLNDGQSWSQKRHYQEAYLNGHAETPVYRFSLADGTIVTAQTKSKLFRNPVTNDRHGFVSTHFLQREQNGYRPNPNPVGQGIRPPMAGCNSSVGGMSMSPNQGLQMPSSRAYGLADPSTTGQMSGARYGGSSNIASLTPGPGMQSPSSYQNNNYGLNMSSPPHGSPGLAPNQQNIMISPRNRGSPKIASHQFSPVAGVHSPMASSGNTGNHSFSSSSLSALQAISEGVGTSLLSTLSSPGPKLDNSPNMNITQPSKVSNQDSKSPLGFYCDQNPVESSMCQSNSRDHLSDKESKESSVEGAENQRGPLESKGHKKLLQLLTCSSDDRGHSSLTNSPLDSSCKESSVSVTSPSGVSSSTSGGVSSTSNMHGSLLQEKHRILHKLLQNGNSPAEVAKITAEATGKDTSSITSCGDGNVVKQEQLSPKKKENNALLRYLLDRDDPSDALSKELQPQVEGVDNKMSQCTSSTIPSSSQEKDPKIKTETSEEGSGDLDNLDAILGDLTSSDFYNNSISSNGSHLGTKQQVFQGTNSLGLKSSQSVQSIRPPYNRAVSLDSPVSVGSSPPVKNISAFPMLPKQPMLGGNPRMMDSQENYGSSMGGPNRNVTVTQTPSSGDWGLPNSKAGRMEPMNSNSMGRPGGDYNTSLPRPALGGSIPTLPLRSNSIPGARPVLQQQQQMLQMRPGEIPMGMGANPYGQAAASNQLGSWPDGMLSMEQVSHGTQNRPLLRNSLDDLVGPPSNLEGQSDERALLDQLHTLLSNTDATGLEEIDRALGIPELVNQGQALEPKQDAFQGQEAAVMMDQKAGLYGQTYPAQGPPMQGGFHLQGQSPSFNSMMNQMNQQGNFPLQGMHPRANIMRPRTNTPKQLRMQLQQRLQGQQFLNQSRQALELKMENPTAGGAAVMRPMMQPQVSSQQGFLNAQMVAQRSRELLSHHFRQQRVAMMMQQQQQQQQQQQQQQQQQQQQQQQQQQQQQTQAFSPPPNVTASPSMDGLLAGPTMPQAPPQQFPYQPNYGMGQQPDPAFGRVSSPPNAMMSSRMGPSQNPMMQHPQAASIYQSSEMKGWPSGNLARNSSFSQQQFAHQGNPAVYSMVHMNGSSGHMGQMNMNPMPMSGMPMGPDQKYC

## histone acetyltransferase p300, full-length, Strep II tagged, Q09472 1-2414
[1]
  stoichiometry N: 1
[2]
  stoichiometry N: 0.5
